Measurements taken from patent CN106146662A (UNIV SUN YAT SEN, dated 2016).

T1: CD3-His蛋白(MP-5)
T1 chain: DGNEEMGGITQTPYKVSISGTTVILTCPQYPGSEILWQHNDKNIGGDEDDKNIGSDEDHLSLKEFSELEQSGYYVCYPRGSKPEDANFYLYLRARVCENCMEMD


How the values were obtained:
CD3-His蛋白(MP-5) = target: T1, CD3-His蛋白(MP-5); assay: BLI (Octet RED96) off-rate screen, sdAb-SASA from expression medium captured on BSA-coated biosensor, 100 nM CD3 in solution, 1:1 Langmuir model, 30°C
CD3 on Jurkat cells = assay: flow cytometry, culture supernatant on Jurkat cells

koff (CD3-His蛋白(MP-5)) [s⁻¹] | MFI (CD3 on Jurkat cells) [MFI] | Binder
5.32e-05 | 283 | C62 (VHH, Llama sdAb tested as sdAb-SASA protein in crude expression medium / culture supernatant; 1 nowhere in its text; also called 抗CD3单域抗体; sdAb; not shown: SASA fusion partner from the pFASEBA vector (sdAb-SASA protein)) VHH: QVQLQESGGGLVQAGGSLRLSCAASGRTFSNYHMGWFRQAPGKERELVAAISGSGGSTYYTDSVKGRFTISRNNAKNTMSLQMSNLKPEDTGVYYCTTPTEKGSSIDYWGQGTQVTVSS
2.84e-05 | 312 | C84 (VHH, Llama sdAb tested as sdAb-SASA protein in crude expression medium / culture supernatant; 3 nowhere in its text; also called 抗CD3单域抗体; sdAb; not shown: SASA fusion partner from the pFASEBA vector (sdAb-SASA protein)) VHH: QVQLQESGGGLVQAGGYLRLSCAVSGRTFSSYAMGWFRQAPGKEREFVAAINWSGGSTYYVDSVKGRFTISRDNAKNTVYLQMNSLKPEDTAVYYCAASGLGYTIVSASEYDYWGQGTQVTVSS
